US12467053 (BIOMOLECULAR, dated 2025)

Legend:
[1] = biological target: T1, TNF-alpha (R&D Systems) (UniProt P01375 77-233); experiment: Biacore T-100 SPR, response against TNF-alpha concentration. Symmetroadhesin amine-coupled to a CM-5 chip.
T1 construct: also called tumor necrosis factor α; TNF-α

[2] = biological target: T1, TNF-alpha (R&D Systems); experiment: Biacore T-100 SPR, response against TNF-alpha concentration. Symmetroadhesin thiol-coupled to a CM-5 chip.

T1 sequence (P01375 77-233 limits assumed): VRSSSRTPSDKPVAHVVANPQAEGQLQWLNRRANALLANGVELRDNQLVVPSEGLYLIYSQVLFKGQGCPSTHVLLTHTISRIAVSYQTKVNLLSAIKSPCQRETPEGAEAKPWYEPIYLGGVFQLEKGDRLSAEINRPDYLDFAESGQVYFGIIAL

EC50 (read off the curve) [1]: ~4 nM
EC50 (read off the curve) [2]: ~0.9 nM
B1: TNR1B symmetroadhesin of FIG. 44A (iv) (human TNR1B extracellular domain with a C-terminal-X-terminus) (receptor)
chain: LPAQVAFTPYAPEPGSTCRLREYYDQTAQMCCSKCSPGQHAKVFCTKTSDTVCDSCEDSTYTQLWNWVPECLSCGSRCSSDQVETQACTREQNRICTCRPGWYCALSKQEGCRLCAPLRKCRPGFGVARPGTETSDVVCKPCAPGTFSNTTSSTDICRPHQICNVVAIPGNASMDAVCTSTSPTRSMAPGAVHLPQPVSTRSQHTQPTPEPSTAPSTSFLLPMGPSPPAEGSTGDGC
modifications: C-terminal X residue (residue 237) added by native chemical ligation; cysteine in the material made (cleavage/elution with cysteine)
notes: The same molecule was immobilised by amine chemistry and by thiol chemistry; also called TNR1B-X; TNR2-X
